Assay results published in patent US20130216529A1 (TALIGEN THERAPEUTICS, published 2013).
Substitutions are numbered along the chain they refer to. Blank lines part the entries; values can stand above or below the binder they belong to.

Tests used:
[1] = molecular target: T1, recombinant human factor B (human, UniProt P00751 26-764, biotinylated (EZ-link) in the Octet assay only; sites not stated); assay: dilution ELISA, factor B coated at 25 ng/well [upper panel]
T1 construct: also called purified factor B protein

[2] = molecular target: T1, recombinant human factor B; assay: dilution ELISA, factor B coated at 50 ng/well [upper panel]
[3] = molecular target: T1, recombinant human factor B; assay: dilution ELISA, factor B coated at 25 ng/well [lower panel]
Procedure: (§1) Next, the ability of the cloned VH and Vκ sequences to bind factor B was assayed. The cloned VH- and Vκ-regions were expressed in bacteria as Fab′ fragments, purified, and tested for binding to factor B in a dilution ELISA. FIG. 4 compares factor B binding of the cloned Fab′ TA003 to that of a Fab′ derived from mAb1379. As expected, both the cloned Fab′ and murine Fab produced binding curves that were dependent on both antibody and antigen concentration.

[4] = molecular target: T1, recombinant human factor B; assay: dilution ELISA, factor B coated at 50 ng/well [lower panel]
Procedure: as §1

[5] = molecular target: T1, recombinant human factor B; assay: dilution ELISA, factor B coated at 100 ng/well [lower panel]
Procedure: as §1

[6] = molecular target: T1, recombinant human factor B; assay: BLI (ForteBio Octet), biotinylated human factor B on neutravidin sensors, Fab' at 1e-7 M
Procedure: (§2) Binding kinetics of the Fab′ fragments were analyzed using a FortéBio® Octet® biosensor (FortéBio, Inc., Menlo Park, Calif.). Recombinant human factor B was biotinylated with the EZ-link biotinylation system (Pierce Biotechnology, Rockford, Ill.) according to the manufacturer's instructions. The antigen was then coupled to neutravidin-coated sensors (FortéBio, Inc., Menlo Park, Calif.) according to the manufacturer's instructions. Fab′ binding was then monitored in real time using bio-layer interferometry analysis and software provided by the manufacturer. Antigen binding affinities were calculated for the tested Fab′ fragments based on the measured association (“Kassoc”) and dissociation (“Kdissoc”) constants. Preferably humaneered antibodies or antibody fragments with equilibrium dissociation constants the same or […] than that of the reference antibody (i.e., mAb 1379) or antibody fragment (i.e., TA10).
(§3) Fully humaneered Fab′ fragments were isolated by colony lift binding assays and confirmed as factor B binders by ELISA. Humaneered Fab′ fragments showing strong positive signals by ELISA were purified and further characterized in comparison to the reference Fab′ fragment TA10, which has murine V-region sequences from mAb 1379. Kinetics of Fab′ fragment binding to recombinant human factor B were analyzed with the FortéBio® Octet® system by bio-layer interferometry, providing real time label-free monitoring of protein-protein interactions. Measured association (Kassoc) and dissociation (Kdissoc) constants, and calculated equilibrium dissociation constants (KD=Kdissoc/Kassoc) (i.e., binding affinity), are shown in Table 1.

[7] = molecular target: T1, recombinant human factor B; assay: BLI (ForteBio Octet), biotinylated human factor B on neutravidin sensors, Fab' at 1e-7 M; KD = Kdissoc/Kassoc
Procedure: as §2, §3

T1 sequence (P00751 26-764): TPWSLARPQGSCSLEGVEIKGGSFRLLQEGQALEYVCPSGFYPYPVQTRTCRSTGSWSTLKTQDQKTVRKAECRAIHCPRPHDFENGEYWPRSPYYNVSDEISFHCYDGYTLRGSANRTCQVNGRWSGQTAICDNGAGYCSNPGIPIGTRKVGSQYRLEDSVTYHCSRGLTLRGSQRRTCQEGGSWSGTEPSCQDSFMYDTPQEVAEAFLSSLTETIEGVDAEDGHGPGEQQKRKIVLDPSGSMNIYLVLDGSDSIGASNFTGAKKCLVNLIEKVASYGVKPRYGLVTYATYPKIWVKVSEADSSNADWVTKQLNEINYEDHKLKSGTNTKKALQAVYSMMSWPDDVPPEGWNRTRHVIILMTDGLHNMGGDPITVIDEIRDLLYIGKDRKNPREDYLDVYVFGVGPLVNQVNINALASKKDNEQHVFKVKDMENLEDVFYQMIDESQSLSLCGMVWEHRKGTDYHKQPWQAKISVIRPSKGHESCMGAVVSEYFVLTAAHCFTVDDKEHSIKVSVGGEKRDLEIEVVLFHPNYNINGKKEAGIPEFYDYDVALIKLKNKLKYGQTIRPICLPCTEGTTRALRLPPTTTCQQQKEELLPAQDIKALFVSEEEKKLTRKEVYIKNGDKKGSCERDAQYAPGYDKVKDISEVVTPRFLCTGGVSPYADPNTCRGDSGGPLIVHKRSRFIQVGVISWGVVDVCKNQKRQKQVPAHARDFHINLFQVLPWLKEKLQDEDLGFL

EC50 (read off the curve) [1]: ~40 nM
EC50 (read off the curve) [2]: ~20 nM
B1: cloned Fab' TA003 (Fab, V domains shown)
VH: EVQLQQSGPELVKPGASVKIPCKASGYTFTDYNMDWVKQSHGKSLEWIGDINPNNGGTIYNQKFKGKATLTVDKSSSTAYMELRSLTSEDTAVYYCARGYYSNSAWFAYWGQGTLVTVSA
VL: DIVMSQSPSSLAVSAGEKVTMSCKSSQSLLNSRTRKNYLAWYQQKPGQSPKLLIYWASTRESGVPDRFTGSGSGTDFTLTISSVQAEDLAVYYCKQSYNLPWTFGGGTKLEIKR
notes: No sentence ties the name TA003 to these numbers directly; also called the cloned Fab'; purified Fab' protein (cloned V-regions from the hybridoma producing mAb 1379)

EC50 (read off the curve) [3]: ~30 nM
EC50 (read off the curve) [4]: ~10 nM
EC50 (read off the curve) [5]: ~8 nM
B2: Fab' derived from mAb 1379 by papain digestion (Fab, V domains shown)
VH: B1 VH
VL: B1 VL
notes: Papain fragment of the murine IgG1 kappa hybridoma antibody mAb 1379 (ATCC PTA-6230); also called murine Fab

koff [6]: 0.00296 s⁻¹
Kd [7]: 6.55 nM
B3: TA10 reference Fab' (Fab, V domains shown)
VH: B1 VH with A120S
VL: DIVMSQSPSSLAVSAGEKVTMSCKSSQSLLNSRTRKNYLAWYQQKPGQSPKLLIYWASTRESGVPDRFTGSGSGTDFTLTISSVQAEDLAVYYCKQSYNLPWTFGQGTKLEIK

koff [6]: 0.0028 s⁻¹
Kd [7]: 3.73 nM
B4: TA103-2 Fab' (Fab, V domains shown)
VH: QVQLVQSGAEVKKPGASVKVSCKASGYSFTDYYMTWVRQAPGQGLEWMGWINPNSGGTKYAQKFQGRVTMTRDTSISTAYMELSRLRSDDTAVYYCARGYYANSAWFAYWGQGTLVTVSS
VL: DIVMTQSPDSLAVSLGERATINCKSSQSLLNSRTSKNYLAWYQQKPGQPPKLLIYWASTRESGVPDRFSGSGSGTDFTLTISSLQAEDVAVYYCKQVYNLPWTFGQGTKLEIK
notes: Humaneered Fab' expressed in E. coli

koff [6]: 0.00437 s⁻¹
kon [6]: 810000 M⁻¹ s⁻¹
Kd [7]: 5.4 nM
B5: TA102-4 Fab' (Fab, V domains shown)
VH: B4 VH
VL: B4 VL with L29V, T34N, S35K
notes: as for B4

koff [6]: 0.00233 s⁻¹
Kd [7]: 4.53 nM
B6: TA101-1 Fab' (Fab, V domains shown)
VH: B4 VH
VL: B4 VL with R33S
notes: as for B4
